Here are results for eight compounds from publication PMC8292405, “Functional expression of the eukaryotic proton pump rhodopsin OmR2 in Escherichia coli and its photochemical characterization” (Scientific Reports, 2021).

As a reminder, the pKa is the negative logarithm of the acid dissociation constant.

Data set [1] deals with Asp95 (UniProt position 95, YARYADWLFTT). To be noted: not stated (counterion of the protonated Schiff base); cited from earlier work.
A further data set deals with Asp88. The data set can be described thus: UV-vis. To be noted: room temperature (approx. 25 °C), 1 M NaCl, Buffer A: 50 mM Tris-HCl, 0.05% (w/v) DDM, pH adjusted by adding HCl, Unphotolysed state under room light, all-trans retinal bound with protonated Schiff base, folded (reversibility of the spectral changes was checked).
Data set [2] has as its target T1, OmR2 (O. marina rhodopsin-2) (Oxyrrhis marina, UniProt A0A0B4P477).
T1 construct: full-length, codon-optimized synthetic gene, C-terminal His6 tag kept; expressed in E. coli BL21(DE3) (pET21a) and in HEK293T; purified in DDM micelles
The data set can be described thus: absorption spectroscopy; HPLC of retinal oximes. In kind it is binding. The note with it: covalent; protonated Schiff base (Lys213); 50 mM Tris-HCl pH 7.0, 1 M NaCl, 0.05% DDM.

The target of a further data set is Asp85 (UniProt position 98, WARYADWLFTT). The note with it: not stated (counterion of the protonated Schiff base); cited from earlier work.
The target of a further data set is Asp81 (UniProt position 81, YARYIDWVLTT). The note with it: not stated (counterion of the protonated Schiff base); cited from earlier work.
The subject of the next data set is Asp100. The note with it: not stated (counterion of the protonated Schiff base); cited from earlier work.
In the next data set the target is Asp97 (UniProt position 97, VFRYIDWLLTV). The note with it: not stated (counterion of the protonated Schiff base); cited from earlier work.
Data set [3] deals with Asp95 (UniProt position 95, FYRYADWLLTV). The note with it: not stated (counterion of the protonated Schiff base); cited from earlier work.

T1 sequence (A0A0B4P477 entry or part of it): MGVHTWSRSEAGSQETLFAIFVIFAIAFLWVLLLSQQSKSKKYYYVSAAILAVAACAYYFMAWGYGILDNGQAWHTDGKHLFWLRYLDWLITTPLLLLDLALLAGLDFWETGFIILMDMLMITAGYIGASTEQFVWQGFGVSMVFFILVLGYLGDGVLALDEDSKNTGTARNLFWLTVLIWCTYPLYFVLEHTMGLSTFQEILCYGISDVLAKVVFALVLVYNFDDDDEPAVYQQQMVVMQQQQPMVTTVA

In the case of “Archaerhodopsin-3 (AR3) (Halorubrum sodomense)”, in the data set with Asp95 [1], the pKa is given as 3.1.

As for “Oxyrrhis marina rhodopsin-2 (OmR2) (Oxyrrhis marina)”, the pKa with Asp88 worked out at 3.0 ± 0.04.

With `CC1=C(/C=C/C(C)=C/C=C/C(C)=C/C=O)C(C)(C)CCC1` [all-trans retinal], the “absorption spectroscopy; HPLC of retinal oximes” value in data set [2] is “This indicates that OmR2 possesses all-trans retinal regardless of the light environment”.

Turning to “Bacteriorhodopsin (BR) (Halobacterium salinarum)”, the pKa with Asp85 was 2.6.

Take “Acetabularia rhodopsin II (ARII) (Acetabularia acetabulum)”: in the data set with Asp81, the pKa is listed as 2.6.

On to “Oxyrrhis marina rhodopsin-1 (OmR1, OR1) (Oxyrrhis marina)”, for which the pKa with Asp100 is 4.

As for “Proteorhodopsin (PR, green-absorbing) (uncultured marine gamma-proteobacterium (EBAC31A08))”, the pKa in the data set with Asp97 is 7.5.

Turning to “Thermophilic rhodopsin (TR) (Thermus thermophilus)”, the pKa with Asp95 [3] is on record as 3.4.
